Test [1] concerns the target T1, Gadd45β/MKK7 complex (biotin-hGadd45β with coated GST-MKK7, ELISA format) (human) (UniProt O75293).
T1 sequence (biotinylated (sites not stated), looked up) 1: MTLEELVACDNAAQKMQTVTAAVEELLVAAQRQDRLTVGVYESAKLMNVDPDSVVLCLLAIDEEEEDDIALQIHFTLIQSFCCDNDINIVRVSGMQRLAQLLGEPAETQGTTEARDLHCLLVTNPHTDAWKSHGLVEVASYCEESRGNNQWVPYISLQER
T1 sequence (biotinylated (sites not stated), looked up) 2: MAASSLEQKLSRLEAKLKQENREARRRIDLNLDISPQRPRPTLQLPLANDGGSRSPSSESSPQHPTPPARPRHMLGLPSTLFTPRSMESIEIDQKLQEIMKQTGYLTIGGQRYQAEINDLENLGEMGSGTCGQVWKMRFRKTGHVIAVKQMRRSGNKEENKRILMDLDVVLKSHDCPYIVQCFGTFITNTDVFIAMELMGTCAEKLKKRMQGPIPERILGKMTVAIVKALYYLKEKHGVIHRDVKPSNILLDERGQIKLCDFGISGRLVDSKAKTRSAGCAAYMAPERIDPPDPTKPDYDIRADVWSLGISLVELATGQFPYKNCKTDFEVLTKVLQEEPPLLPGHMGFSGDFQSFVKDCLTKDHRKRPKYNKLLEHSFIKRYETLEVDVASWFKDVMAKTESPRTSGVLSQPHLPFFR
Kind of test: competition ELISA after 48-hr pre-incubation of the peptide with human serum at 37 °C. Background: ELISA stands for enzyme-linked immunosorbent assay.

For test [2], the target named is T1, Gadd45β/MKK7 complex (biotin-hGadd45β with coated GST-MKK7, ELISA format) (human). Kind of test: competition ELISA; coated GST-MKK7 42 nM, biotin-hGadd45β 21 nM.
For test [3] the target is unchanged. Kind of test: ELISA competition assay: coated MKK7, soluble biotin-hGadd45β; peptide pre-incubated 48 hr with human serum at 37° C.; after 48-hr incubation with human serum at 37° C.
Test [4] addresses T2, Gadd45β/MKK7 complex (biotin-hGadd45β with coated GST-MKK7, ELISA format) (human, UniProt O75293 1-160; O14733 1-419, biotinylated (sites not given)).
T2 construct: not shown: glutathione S-transferase (GST) fusion partner
T2 sequence (looked up) 1: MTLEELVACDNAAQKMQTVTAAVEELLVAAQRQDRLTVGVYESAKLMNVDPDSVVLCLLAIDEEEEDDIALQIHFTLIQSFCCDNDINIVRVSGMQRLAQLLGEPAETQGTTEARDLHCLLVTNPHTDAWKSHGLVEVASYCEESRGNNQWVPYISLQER
T2 sequence (looked up) 2: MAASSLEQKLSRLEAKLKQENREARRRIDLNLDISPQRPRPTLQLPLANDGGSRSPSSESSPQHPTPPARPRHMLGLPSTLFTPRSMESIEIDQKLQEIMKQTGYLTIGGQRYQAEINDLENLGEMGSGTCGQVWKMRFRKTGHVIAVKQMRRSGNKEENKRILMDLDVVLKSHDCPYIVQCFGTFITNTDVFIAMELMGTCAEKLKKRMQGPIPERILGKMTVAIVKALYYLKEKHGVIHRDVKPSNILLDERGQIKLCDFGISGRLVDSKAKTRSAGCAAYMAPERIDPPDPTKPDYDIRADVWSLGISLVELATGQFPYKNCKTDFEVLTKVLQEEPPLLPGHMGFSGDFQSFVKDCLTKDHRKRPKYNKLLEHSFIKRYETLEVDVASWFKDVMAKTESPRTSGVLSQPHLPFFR
Kind of test: ELISA competition: coated GST-MKK7 (42 nM), soluble biotin-hGadd45β (21 nM), increasing peptide; read-out % binding of biotin-hGadd45β to MKK7.

The target in test [5] is T2, Gadd45β/MKK7 complex (biotin-hGadd45β …). The test can be described thus: competition ELISA; coated GST-MKK7, biotin-hGadd45β; single dose.
Test [6] concerns the target T1, Gadd45β/MKK7 complex (biotin-hGadd45β with coated GST-MKK7, ELISA format) (human). The test can be described thus: competition ELISA; coated MKK7, biotin-hGadd45β (FIG. 3C).
The target is the same in test [7]. Kind of test: derived from the in vitro ELISA competition IC50 (Gadd45β/MKK7).
For test [8], the target named is T3, MKK7KD (constitutively active kinase domain of MKK7, residues 101 to 405, S287D and T291D, His6 fusion) (UniProt O14733-3 101-405).
T3 construct: range 101-405; also called MKKKD; not shown: His6 tag
T3 sequence (looked up): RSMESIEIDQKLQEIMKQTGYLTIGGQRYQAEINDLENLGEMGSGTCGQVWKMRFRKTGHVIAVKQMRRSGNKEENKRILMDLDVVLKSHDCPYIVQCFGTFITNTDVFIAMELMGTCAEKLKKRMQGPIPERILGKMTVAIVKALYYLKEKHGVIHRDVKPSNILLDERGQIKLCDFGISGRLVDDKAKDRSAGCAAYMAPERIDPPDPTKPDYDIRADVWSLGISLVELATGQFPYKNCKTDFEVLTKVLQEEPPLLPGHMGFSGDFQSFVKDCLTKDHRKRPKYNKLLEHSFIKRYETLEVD
The test can be described thus: SPR (Biacore 3000), MKK7KD immobilized, Gadd45β injected at 20-200 nM. (SPR reads the build-up and loss of mass on a sensor chip optically.)

Test [9] deals with T3, MKK7KD (constitutively active kinase …). Kind of test: SPR (Biacore 3000), Gadd45β immobilized, MKK7KD injected at 1-25 nM. The method, then:
On another channel the same procedure of activation with EDC/NHS and inactivation with ethanolamine was performed.

Square brackets hold non-standard residues; d marks the D form. * marks the point of attachment. Cbz = O=C(OCc1ccccc1)*

Cbz-[dY][dD][dH][dF]-NH2 [Z-Tyr-Asp-His-Phe-NH2 (Z-DTP1)]: the IC50 in test [1] is 0.19 nM; in test [2], 0.22 nM; in test [3] it was 0.19 nM.

As to Ac-YDHF-NH2 (also called Ac-LTP1; LTP1) [Ac-YDHF-NH2], in [4], the 50% inhibitory concentration (IC50) was determined as 0.4 nM. Further, the “% Inhibition of Gadd45β-MKK7 binding” value in [5] was 94%.

On to Ac-YERF-NH2 (also called Ac-LTP2; LTP2) [Ac-YERF-NH2], for which, in test [4], the IC50 is 0.4 nM. Moreover, in [5], the “% Inhibition of Gadd45β-MKK7 binding” value is 93%.

B1: DTP2, Acetyl-(D-Tyr)-(D-Glu)-(D-Arg)-(D-Phe)-NH2 (peptide)
peptide: Ac-[dY][dE][dR][dF]-NH2
SMILES: CC(=O)N[C@H](Cc1ccc(O)cc1)C(=O)N[C@H](CCC(=O)O)C(=O)N[C@H](CCCNC(=N)N)C(=O)N[C@H](Cc1ccccc1)C(N)=O
As to B1, the IC50 in [6] amounted to 0.19 nM.

For the molecule Cbz-[dY][dE][dR][dF]-NH2 [Z-DTP2 (Z-D-Tyr-D-Glu-D-Arg-D-Phe-NH2)], the results for the IC50 in test [1], in test [2] and in test [3] were 0.18 nM, 0.19 nM and 0.18 nM, respectively. Further, the Ligand Efficiency in test [7] was -0.26.

B2: Full length human Gadd45β (other, UniProt O75293 1-160, looked up)
chain: MTLEELVACDNAAQKMQTVTAAVEELLVAAQRQDRLTVGVYESAKLMNVDPDSVVLCLLAIDEEEEDDIALQIHFTLIQSFCCDNDINIVRVSGMQRLAQLLGEPAETQGTTEARDLHCLLVTNPHTDAWKSHGLVEVASYCEESRGNNQWVPYISLQER
notes: also called Gadd45β (SPR)
As for B2, the Kd came out at 4 nM in [8] and 3.4 nM in test [9].

Broadly, the IC50 is the concentration that inhibits the measured activity by half. As a reminder, the Kd is the concentration at which binding is half-saturated. Higher therefore signals weaker binding.

(Values after patent US20120277164A1 (IMPERIAL INNOVATIONS, published 2012).)
